In PMC7689449:

Assays:
[1] = molecular target: Sulfolobus islandicus rod-shaped virus 3 (SIRV3) anti-CRISPR protein AcrID1 (C-terminal His6) (Sulfolobus islandicus rod-shaped virus 3 (SIRV3)); experiment: crystal structure; Se-Met Cas10d and AcrID1 mixed 1:2 (Cas10d:AcrID1), 75 °C for 1 min, complex isolated on Superdex 200 (30 mM Hepes-NaOH pH 7.5, 150 mM NaCl, 5 mM β-ME); crystals in 0.1 M Hepes pH 7.5, 4% PEG 8000, 5% ethylene glycol, 19 °C; SAD, 3.5 Å
[2] = molecular target: Sulfolobus islandicus type I-D Cas10d large subunit (Se-Met substituted, C-terminal His6) (Sulfolobus islandicus); experiment: as above

With “Sulfolobus islandicus rod-shaped virus 3 (SIRV3) anti-CRISPR protein AcrID1 (C-terminal His6) (natural protein)” the stoichiometry N [1] was 2 and the stoichiometry N (AcrID1 per Cas10d) [2] was 2.
